Assay: yeast display, Sf9 membrane polyspecificity reagent, FACS + sequencing; frameworks hold sequencing errors
Summary of the method: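 Sorting gates, low and high (top ~1%), were placed on anti-HA fluorescence to track expression and on streptavidin fluorescence to track reagent binding. A clone's polyreactivity label is taken from the gate it came out of. The reagent was 10% biotinylated, detergent-solubilized Sf9 membrane, applied for 1 hour at 4 °C to galactose-induced yeast display cells.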

Row | Sequence | polyreactivity (PSR sort gate)
1 | QVQLVDSGGGLVQAGGSLRLSCAASGRTFNWYAMGWYRQETRKERELVAAISSTGGSTYYADSVKGRFTISRDNAKNTVYLQMNSLKPEDTAVYYCAAALPGYGDYYYWGQGTQVTVSS | high polyreactivity
2 | QVQHVESGGGLDQAGGSLPLSCASSGSTFAYYAMGWYRQAPGKERELVASITWSGGITYYADSVKGRFTISRDNAKNTVYLQMNSLKPEETAVYYCNVVPYYGYYYWGQGSQVTVSS | low polyreactivity
3 | QVQLVESGGGLVQAGGSLRLSCAASGFTISRYNMGWYRQAPGKEREMVAAISGSGGSTYYADSVKGRFTISRDNAKNTVYLQMNSLKPEDTAVYYCNAVRNWYYTPWEMNYWGQGTQVTVSS | high polyreactivity
4 | QVQLVESGGGLVQAGGSLRLSCAASGITFTRYTKGWYRQAPGKERELVAAIRGSGGSTYYADSVKGRFTISRDNAKNTVYLEMNSLKAEDTAVYFCAADKYLYGRLTRNFHYYYWGLGTQVTVSS | low polyreactivity
5 | QVQLVESGGGLVQAGGSLRLSCAASGRTFWYYTMGWYREAPGKERELVAAINWSGGSTYYADSVKGRFTISRDNAKNTVYLQMNSLKPEDTAVYYCAARRNGYFSAARDYGGQGTQVTVSS | high polyreactivity
6 | QVQLVESGGGLVQAGGSLRLSCAASGSTFFSYTMGWSRQAPGKEWELVAAITWSAGTTYYADSVKGRFTISRDNAKNTVYLQMNSLKPEDTAVYYCNADLSRYPTAVRMDYWGQGTQVTVSS | low polyreactivity
7 | QVQLVESGGGLVQAGGSLRLSCAASGNIFAPNAMGWYRQAPGKERELVAAISRSGGSTHYADSVKGRFTISRDNAKNTVYLQMNSLKPEDTAVYYCAAGWYGRYTSKMGYWGQGTQVTVSS | high polyreactivity
8 | QVQLVESGGGLVQAGGSLRLSCAASGRIFDIYAMGWYRQAPGKERELVATITRSAGRTYYADSVKGRFTISRDNAKNTVYLQMNSLKPEDTAVYFCAASYWDTEPGYREYEYWGQGTQVTVSS | low polyreactivity
9 | QVQLVESGGGLVQAGGTLRLSCDASGRTFHVYAMGWYRHAPGKERELVAAISGRTGSTYYADSVKGRFTISRDIAKNTVYLQMNSLKPEDTAVYYCAKGYSYGWWGGFGYWGQGTQVTVSS | high polyreactivity
10 | QVQLVESGGGLVQAGGSLRLSCATSGSIFPTYAMGSYRQAPGKERELVAAISAIVGGTYYADSVKGRFTISRDNAKNTVYLQMNSLKPEDTAVYYCNKTKFQGYDYWGQGTQVTVSS | low polyreactivity
11 | QVQLVESGGGLVQAGGSLRLSCAASGSTFSANAMGWYRPAPGKERELVAAISRSGTRTYYADSVKGRFTISRDNAKNTVYLQMNSLKPEDTAVYYCAAYVYQYGYDYWGQGTQVTVSS | high polyreactivity
12 | QVQLVESGGGLVQAGGSLRLSCAASGFTYYWNAMGWYRQAPGKERELVAAINWRGTSTYYADSVKGRFTISRDNAKNTVYLQMNSLKPEDTAVYYCNTYGYVEYDWGQGTQVTVSS | high polyreactivity
13 | QVQLVESGGGLVQAGGSLRLSCAASGRIFEYYAMGWYRQAPGKERELVAVISSGSSTNYADSVKGRFTISRDNAKNTVYLQMNSLKPEDTAVYYCAAEYSVYYRFSDGDYWGQGTQVTVSS | low polyreactivity
14 | QVQLVESGGGLVQAGGSLRLSCAASGLTFGVYAMGWYRQAPGKERELVASIRSGGSTYYADSVKGRFTISRDNAKNTVYLQMNSLKPEDTAVYYCAKGTFDLHYRKRYNYWGQGTQVTVSS | low polyreactivity
15 | QVQRVESGGGLVQAGGSLRISCAASGRTFRKYAMGWYRQARGKERELGAAMSWSGGSTYYANSVKGRFPISRDKPKNTVYLQMNSLKPEETAVYYCASDVDRFYTYKYDYWGQGTQVTVSS | low polyreactivity
16 | QVQLVESGGGLVQAGGSLRLSGAASGSTFYSYAMGWYRQAPGKERELVAAISGSGASTYYADSVKGSFTISRDNAKNTVYLLMNSLKPEETAVYYCAADKPGIFSRFDYWGQGTQVTVSS | low polyreactivity
17 | QVQLVESGGGLVQAGGSLRLSCAASGFTFFWYTMGWYRQAPGKERELVAAISDTGGSTYYADSVKGRFTISRDNAKNTVYLQMNSLKPEDTAVYYCAAQYVRYGHYYWGQGTQVTVSS | high polyreactivity
18 | QVQLVESGGGLVQAGGSLRISCAASGYIFTGNAMGWYRKAPGKEREFVAAISWSGGSTYYADSVKGRFTISRDNAKNTVYLQMNSLKPEDTAVYYCNKYRPYGRIYHLAYGRDYWGQGTQVTVSS | high polyreactivity
19 | QVQLVESGGGLVQAGGSLRLSCAASGSTQYKYAMGWNRQAPGKERELVAAISWSGSSTYYADSVKGRFTISRDNAKNTVYLQLNSLKREDTAVYYCAAYPRPYIGYTDGYVWYEFDYWGQGTQVTVSS | low polyreactivity
20 | QVQLVESGGGLVQAGGSLRLSCAASGRTFLVYAMGWYRQAPGKERELVAAISYSDGNTYYADSVKGRFTISRDHAKNTVYLQMNSLKPEDTAVYYCNAVTYGYPYDYWGQGTQVTVSS | low polyreactivity
21 | QVQLVESGGGLVQAGGSLRLSCAACGRIFGYYAMGWYRQAPGKERELVAAITGVGRTNYADSVKGRFTISRDNAKNTVYLQMNSLKPEDTAVYYCNVVRVYRYDYWGQGTQVTVSS | high polyreactivity
22 | QVQLVESGGGLVQAGGSLRLSCAASGSIFVGYGAMGWYRQAPGKERELVAAITSGTSTYYADSVKGRFTISRDNAKNTVYLQMNSLKPEDTAVYYCAARGFLKYVTEFDYWGQGTQVTVSS | low polyreactivity

Row | Sequence | polyreactivity (PSR sort gate)
23 | QVQLVESGGGLVQAGGSLRLSCAASGSISGWYAMGWYRHAPGKERELVADISSIDGSTYYADSVKGRFTISRDNEKNTVYLQMNSLKPEDTSVYYCSADRGFYYEYDYWGQGTQVTVSS | low polyreactivity
24 | QIQLVESGGGLVQAGGSLRLSCSASGSISGYYSRRWYRQAPGKQSEFVASIRYTGARTYYADSVKGRFTISLDNAKNTVYLQMNSLIAEDTAVYFWAADVKRDSVWGGDYWGQGNQVTVSS | low polyreactivity
25 | QVQLVESGGGLVQAGGSLRLSCAASGRIFYTNAMGWYRQAPGKERELVAAISWRGGSTYYADSVKGRFTISRDNAKNTVYFQMNSLKPEDTAVYYCNRYYLSYNYDYWGQGTQVTVSS | high polyreactivity
26 | QVQLVESGGGLVQAGGSLRLSCAASGFTFSYNAMGWYRQAPGKERELVAAIDWGGGSTYSYSVKGRFTISRDNAKNTVYLQMNSLKPEDTAVYYCAAYIPSSGRNPEIGVEYDYWGQGTQVTVSS | low polyreactivity
27 | QVQLVESGGGLVQAGGSLRLSCAASGRTFPAYTMGWYRPAPGKERELVAAIRWSGGRTRYADSVKGRFTISRDNAKNTVYLQMNSLKPEDTAVYYCAAYRLSKPFYKYDYWGQGTQVTVSS | high polyreactivity
28 | QVQLVESGGGLVQAGGSLRLSCAASGYNFWYNGMGWYRQAPGKERELVAAITSSSGTTYYADSVKGRFTISRDNAKTTVYLQMNSLKPVDTSVYYFNAVLSSNTQCRYPGDYWGQGTQVTVSS | low polyreactivity
29 | QVQLVESGAGLVQAGGSLRLSCAASGRIFTFNTMGWYRQAPGKERELVAAITSSSARTYYADSVKGRFTISRYNAKNTVYLQMNSLKPEDTAVYYCATRDWVGSVRMGYWGQGTQVTVSS | high polyreactivity
30 | QVQLVESGGGLVQAGGSLRLSCAASGSIFGVYTMGWYRQAPWKERELVAAISRNGGSTYYEDSVKGRFTISRDNAKNNVYLQMNSLKPEDTAVYYCATSTSRRYGSRHNYWGQGTQVTVSS | high polyreactivity
31 | QVQLVESGGGLLQAGGSLRLSCAASGSTFKGYAMGWYRQAPGKERELVAAISWSAGSTYYADSVKGRFTISRDNAKNTVYLQMNSLKPEDTAVYYCAKASVALRYYSYSLGRDYWGQGTQVTVSS | low polyreactivity
32 | QVQLVESGGGLVQAGGSLRLSCAASGSTFVYNDMGWYRQAPGKERELVAVITSGGNTYYADSVKGRFTISRDNAKNTVYLQMNSLKPEDTAVYYCATRWYRFYPSDYWGQGTQVTVSS | low polyreactivity
33 | QVQLQESGGGLVQAGGSLRLSCAASGSIFLFYTMGWYRQAPVKEREFVAGITLGTTTYNADSVKGRFTISRDNVKNTVYLQMNSLKPEDTAVYYCAVAVGHYTEFWYWGQGTQVTMSS | high polyreactivity
34 | QVQLVESGAGLVQAGGSLGLSCAASGFTFRTYAMGWYRQAPGKERELVADISGSGGSTYYADSVKGRFTISRYNAKNTVYLQMISLKPEDTAVYYCAGTIYNWGYERDYWGQGTQVTVSS | high polyreactivity
35 | QVQLVESGGGLVQAGGSLRLSCADSRSIITNNAMGWYRQAPGKERELVAAISGSGGSTYYADSVKGRFTISRDNAKNTVYLQMNSLKPEDTAVYYCAANKSSRRMNYWGLGTQVTVSS | high polyreactivity
36 | QVQLVESGGCLLQAGATLRLSCASSGSIFNGKAMGWYRQAPGKERELVAANTWSGGSTYYADSVKGRFTISRDNAKNSVYLQMNSLKPEDTAVYYCNTYTYRGYDYWGQGTQVTVSS | high polyreactivity
37 | QVQLVESGGGLVQAGGSHRLSCAASGSTFYGYAMGWYRQAPGKESELVAAIRFSGDRTYYADSVKGRFTISRDNAKNTVYLQMNSLKPEDTAVYYCAAYGYPYQRKYGSWGQGTQVTVSS | high polyreactivity
38 | PVQLVESGGGVVQAGGSLRLSCAASGSTFEYYAMGWYRQAPGKERELVAAITRRGGSTYSADSVKGRFTISRDNAKNTVYVQMNSLKPEDTAVYYCAAKGFPRSGYPYQAQHMYYWGQGTQVTVSS | low polyreactivity
39 | QVQLVESGGGLVQAGGSLRLSCAASGFTFSWYALGWYRQAPGKESELVAAINWSGTSTYYADSVKGRFTISRDNAKNTVYLQMNSLKPEDTAVYYCNVVVYRWSPVSKLDYWGQGTQVTVSS | high polyreactivity
40 | QVQLVESAGGLVQAGGSLRLICADSGSIFSNDAMGWYTQAPGKERELVAAITNGVSTNYADSVKGRFTISRDNAKNTVYLPMNSLIPEDTAVYYCAAVSRSYYNSYNYWGQGTQVTVSS | high polyreactivity
41 | QVQLVESGGGLVQEGGSLRLSCAASGRIFPKYAMGWYRQAPAKERELVAAISQRGGSTYYADSVKGRFTISRDNAKNTVYLQMNSLKPEDTAVYYCAASYYRQSCEYDYWGQGTQVTVSS | low polyreactivity
42 | QVQLVESGGGLVQAGGSLRLSCAASGSTSGQNAKGWYRQPPGNERELVAAISSSAGSTYADSVKGRFTISRDNAKNTVYLQMNSLKPEDTAVYYCNVPYYYTRGSYGYWGQGTQVTVSS | low polyreactivity
43 | QVQLVESGGGLVQAGGSLRLSCAASGFTFDSNAMGRYRQAPGKERELVAANSTGGSTYYADSVKGRFTISRDNAKNTVYLQMNSLKPEDTAVYYCARDPPYPDTWYGYWGQGTQVTVSS | low polyreactivity

Source: the nanobody polyreactivity screen of Harvey et al. (2022)
